Assay results from patent US20250271431A1 (NEW ERA MABS, published 2025).
Values joined by “and” are separate entries in the source; they are usually repeats but may differ in a detail not shown here. Identical values can stand only once. Like-named read-outs stand apart in the source and are kept apart here.

Legend:
[1] = target: T1, SARS-CoV-2 Spike protein-RBD-mFc (Acrobiosystem; SPD-C5259) (SARS-CoV-2; mouse, UniProt P0DTC2 319-541)
[2] = target: epitope sequence SEQ ID No 21 ([…]) (SARS-CoV-2); assay: RepliTope peptide microarray, Cy5 fluorescence
Procedure: (§1) The peptide library consisted of 15-meric peptides representing overlapping peptide scans. […] Incubation took place for 1 hour at 30° C. Biotin-labeled secondary antibody (mouse-anti-camelid IgG) was added at 2 μg/mL and incubated for 1 hour. Detection was visualized using Cy5-labeled streptavidin at 0.1 μg/mL incubated for 1 hour. After washing and drying, the slides were scanned with a high-resolution laser scanner at 635 nm to obtain fluorescence intensity profiles. Resulting images were quantified to yield a mean pixel value for each peptide.

[3] = target: epitope sequence SEQ ID No 25 ([…]) (SARS-CoV-2); assay: RepliTope peptide microarray, Cy5 fluorescence
Procedure: as §1

[4] = target: epitope sequence SEQ ID No 27 ([…]) (SARS-CoV-2); assay: RepliTope peptide microarray, Cy5 fluorescence
Procedure: as §1

[5] = target: epitope sequence SEQ ID No 28 ([…]) (SARS-CoV-2); assay: RepliTope peptide microarray, Cy5 fluorescence
Procedure: as §1

[6] = target: epitope sequence SEQ ID No 29 ([…]) (SARS-CoV-2); assay: RepliTope peptide microarray, Cy5 fluorescence
Procedure: as §1

[7] = target: epitope sequence SEQ ID No 30 ([…]) (SARS-CoV-2); assay: RepliTope peptide microarray, Cy5 fluorescence
Procedure: as §1

[8] = target: epitope sequence SEQ ID No 36 ([…]) (SARS-CoV-2); assay: RepliTope peptide microarray, Cy5 fluorescence
Procedure: as §1

[9] = target: epitope sequence SEQ ID No 38 ([…]) (SARS-CoV-2); assay: RepliTope peptide microarray, Cy5 fluorescence
Procedure: as §1

[10] = target: epitope sequence SEQ ID No 39 ([…]) (SARS-CoV-2); assay: RepliTope peptide microarray, Cy5 fluorescence
Procedure: as §1

[11] = target: T1, SARS-CoV-2 Spike protein-RBD-mFc …; assay: SPR (Biacore T200), […], kinetic fit 1:1 binding, […]
[12] = target: T1, SARS-CoV-2 Spike protein-RBD-mFc …; assay: as above; remark: listed apart in the source

B1: hcAb B10 (clone B10), camelid full length IgG2 heavy chain only antibody (antibody, V domains shown)
VH: DVQLQESGGGLVQPGGSLRLSCAASGDINTIGTMNWFRQAPGKGREFVALITSGGTTNYADSVKGRFTVSRDNAKNTVYLQMNSLKPEDTAVYHCYGADHYSDYWGQGTQVTVSS
notes: also called mAb B10
B1 gave a Kd [1] of 0.39 nM, an average signal intensity [2] of 48600 mean pixel value and an average signal intensity [3] of 750 mean pixel value. For the same binder, the average signal intensity [4] was 14000 mean pixel value, the average signal intensity [5] was 14000 mean pixel value and the average signal intensity [6] was 353 mean pixel value. The average signal intensity [7] was 644 mean pixel value, the average signal intensity [8] was 800 mean pixel value and the average signal intensity [9] was 18100 mean pixel value. The average signal intensity [10] was 15200 mean pixel value, the Kd [11] was 0.372 nM and 0.385 nM and the koff [11] was 0.000454 s⁻¹ and 0.000459 s⁻¹. The kon [11] was 1.22e+06 M⁻¹ s⁻¹ and 1.19e+06 M⁻¹ s⁻¹, the Kd [12] was 0.397 nM and the koff [12] was 0.000463 s⁻¹. It also gave a kon [12] of 1.17e+06 M⁻¹ s⁻¹.
